In patent US20230136301A1, “Corticosteriod Reduction in Treatment with Anti-CD38 Antibody” (Janssen Biotech, Inc., priority 2021, published 2023):
Where “and” joins values, the source holds several entries; their conditions need not be identical. Equal values may be shown once.

Tested on: patients with RRMM
Assay: PAVO Part 3: treatment-emergent adverse events with DARA SC and corticosteroid tapering
Protocol: The PAVO (MMY1004) trial is an open-label, nonrandomized, multicenter, phase lb study consisting of 3 parts. […] Safety was assessed, with an emphasis on IRRs, while corticosteroids were reduced and discontinued.
The purpose of Part 3 was to evaluate the safety of daratumumab 1,800 mg SC delivery without predose and postdose corticosteroids after a 3-week, 2-week, and 1-week tapering schedule to assess the safety of corticosteroid-free SC daratumumab administration. A total of 42 participants were treated. […] In conjunction, patients also received a 3-week, 2-week, or 1-week steroid tapering schedule (FIG. 2). The 3-week tapering schedule (corticosteroid-free by Cycle 1 Day 22) consisted of methylprednisolone (MP) given orally (PO)/IV pre-dose (Cycle 1 Day 1, 100 mg; Cycle 1 Day 8, 60 mg; Cycle 1 Day 15, 30 mg) and PO post-dose (Cycle 1 Day 1, 20 mg for 2 days; Cycle 1 Day 8, 20 mg for 1 day; Cycle 1 Day 15, 20 mg for 1 day). The 2-week tapering schedule (corticosteroid-free by Cycle 1 Day 15) consisted of MP given PO/IV pre-dose (Cycle 1 Day 1, 100 mg; Cycle 1 Day 8, 60 mg) and PO post-dose (Cycle 1 Day 1, 20 mg for 2 days; Cycle 1 Day 8, 20 mg for 1 day). The 1-week tapering schedule (corticosteroid-free by Cycle 1 Day 8) consisted of dexamethasone 20 mg administered IV pre-dose on Cycle 1 Day 1, without post-dose administration.
The 3-week, 2-week and 1-week steroid tapering schedules were assessed by “3+3” design, followed by cohort expansion to approximately 15 patients (3-week and 2-week tapering cohorts) or 12 patients (1-week tapering cohort). The dose-limiting toxicity (DLT) assessment period in the 3-week, 2-week and 1-week tapering cohorts were Cycle 1 Day 1 through Cycle 2 Day 4, Cycle 1 Day 1 through Cycle 1 Day 25, and Cycle 1 Day 1 through Cycle 1 Day 11, respectively. […] Grade 3 or 4 IRRs only qualified as DLTs if they occurred during corticosteroid reduction or discontinuation (not during Cycle 1 Day 1). For the 3-week and 2-week groups, IRRs reported at Cycle 1 Day 1 were not considered DLTs, as corticosteroids had not yet been reduced or discontinued. Up to approximately 12 patients could be enrolled in the 1-week tapering schedule to assess safety, including IRRs.
Safety assessments included treatment-emergent adverse events (TEAEs), serious adverse events, and IRRs. All toxicities were graded according to the National Cancer Institute's Common Terminology for the Classification of Adverse Events (NCI-CTCAE) Version 4.03 (National Cancer Institute. Common Terminology Criteria for Adverse Events (CTCAE): Version 4.03.).
The safety and efficacy populations, defined as all patients who received ≥1 dose of study drug, was the primary population for analysis. […] The pharmacokinetic-evaluable population was defined as all patients who received ≥1 dose of study drug and provided ≥1 post-infusion pharmacokinetic sample. The immunogenicity population was defined as all patients who received ≥1 dose of study drug and provided ≥1 post-infusion immunogenicity sample.

Substance: DARA SC: 1,800 mg daratumumab co-formulated with 30,000 U rHuPH20 (2,000 U/mL, 15 mL), manual subcutaneous injection
- Grade ≥3 TEAEs, participants (3-week taper): 60%
- Nausea, participants (3-week taper): 53%
- Nervous system disorders (3-week taper): 46.7%
- Patients who died due to complications from DLBCL (3-week taper): One
- TEAEs with an outcome of death (3-week taper): No deaths
- Anemia, any grade TEAE (3-week taper n=15): 1 (6.7) n (%) and 1 (6.7%) n (%)
- Anemia, grade ≥3 TEAE (3-week taper n=15): 1 (6.7) n (%) and 1 (6.7%) n (%)
- Any TEAE (3-week taper n=15): 15 (100)^ n (%) and 15 (100.0%) n (%)
- Any grade ≥3 TEAE (3-week taper n=15): 9 (60.0) n (%) and 9 (60.0%) n (%)
- Arthralgia, any grade TEAE (3-week taper n=15): 3 (20.0) n (%) and 3 (20.0%) n (%)
- Asthenia, any grade TEAE (3-week taper n=15): 1 (6.7) n (%) and 1 (6.7%) n (%)
- Back pain, TEAE (3-week taper n=15): 1 (6.7%) n (%)
- Blood and lymphatic system disorders (SOC), TEAE (3-week taper n=15): 4 (26.7%) n (%)
- Blood and lymphatic system disorders (SOC), grade 3 or higher TEAE (3-week taper n=15): 3 (20.0%) n (%)
- Bone pain, TEAE (3-week taper n=15): 2 (13.3%) n (%)
- Bone pain, grade ≥3 TEAE (3-week taper n=15): 1 (6.7) n (%) and 1 (6.7%) n (%)
- Chills, TEAE (3-week taper n=15): 2 (13.3%) n (%)
- Constipation, TEAE (3-week taper n=15): 2 (13.3%) n (%)
- Cough, any grade TEAE (3-week taper n=15): 3 (20.0) n (%) and 3 (20.0%) n (%)
- Decreased appetite, TEAE (3-week taper n=15): 3 (20.0%) n (%)
- Diarrhea, any grade TEAE (3-week taper n=15): 4 (26.7) n (%) and 4 (26.7%) n (%)
- Dizziness, any grade TEAE (3-week taper n=15): 4 (26.7) n (%) and 4 (26.7%) n (%)
- Erythema, any grade TEAE (3-week taper n=15): 2 (13.3) n (%) and 2 (13.3%) n (%)
- Fatigue, any grade TEAE (3-week taper n=15): 4 (26.7) n (%) and 4 (26.7%) n (%)
- Gastrointestinal disorders (SOC), TEAE (3-week taper n=15): 9 (60.0%) n (%)
- General disorders and administration site conditions (SOC), TEAE (3-week taper n=15): 11 (73.3%) n (%)
- Headache, any grade TEAE (3-week taper n=15): 5 (33.3) n (%) and 5 (33.3%) n (%)
- Lymphopenia, grade ≥3 TEAE (3-week taper n=15): 2 (13.3%) n (%) and 2 (13.3) n (%)
- Metabolism and nutrition disorders (SOC), TEAE (3-week taper n=15): 7 (46.7%) n (%)
- Muscle spasms, any grade TEAE (3-week taper n=15): 1 (6.7) n (%)
- Musculoskeletal and connective tissue disorders (SOC), TEAE (3-week taper n=15): 6 (40.0%) n (%)
- Musculoskeletal and connective tissue disorders (SOC), grade 3 or higher TEAE (3-week taper n=15): 2 (13.3%) n (%)
- Nasopharyngitis, any grade TEAE (3-week taper n=15): 5 (33.3) n (%) and 5 (33.3%) n (%)
- Nausea, any grade TEAE (3-week taper n=15): 8 (53.5%) n (%) and 8 (53.3%) n (%) and 8 (53.3) n (%)
- Nervous system disorders (SOC), TEAE (3-week taper n=15): 7 (46.7%) n (%)
- Neutropenia, grade ≥3 TEAE (3-week taper n=15): 0 n (%)
- Oropharyngeal pain, TEAE (3-week taper n=15): 2 (13.3%) n (%)
- Pain in extremity, any grade TEAE (3-week taper n=15): 4 (26.7) n (%) and 4 (26.7%) n (%)
- Patients with a serious TEAE (3-week taper n=15): 6 (40.0%) n (%)
- Peripheral edema, any grade TEAE (3-week taper n=15): 1 (6.7) n (%) and 1 (6.7%) n (%)
- Pyrexia, any grade TEAE (3-week taper n=15): 4 (26.7) n (%) and 4 (26.7%) n (%)
- Respiratory, thoracic and mediastinal disorders (SOC), TEAE (3-week taper n=15): 6 (40.0%) n (%)
- Skin and subcutaneous tissue disorders (SOC), TEAE (3-week taper n=15): 6 (40.0%) n (%)
- Vomiting, TEAE (3-week taper n=15): 2 (13.3%) n (%)
- Anemia, TEAE of Grade >3 (PAVO Part 3): 9.5%
- Serious TEAEs in SOC General disorders and administration site conditions (PAVO Part 3): 4.8%
- TEAEs in SOC General disorders and administration site conditions (PAVO Part 3): 71.4%
- Anemia, any grade TEAE (Total n=42): 7 (16.7) n (%) and 7 (16.7%) n (%)
- Anemia, grade ≥3 TEAE (Total n=42): 4 (9.5) n (%) and 4 (9.5%) n (%)
- Any grade ≥3 TEAE (Total n=42): 21 (50.0%) n (%) and 21 (50.0) n (%)
- Arthralgia, any grade TEAE (Total n=42): 10 (23.8) n (%) and 10 (23.8%) n (%)
- Asthenia, any grade TEAE (Total n=42): 7 (16.7) n (%) and 7 (16.7%) n (%)
- Back pain, TEAE (Total n=42): 6 (14.3%) n (%)
- Blood and lymphatic system disorders (SOC), TEAE (Total n=42): 11 (26.2%) n (%)
- Blood and lymphatic system disorders (SOC), grade 3 or higher TEAE (Total n=42): 8 (19.0%) n (%)
- Bone pain, TEAE (Total n=42): 7 (16.7%) n (%)
- Bone pain, grade ≥3 TEAE (Total n=42): 3 (7.1) n (%) and 3 (7.1%) n (%)
- Chills, TEAE (Total n=42): 5 (11.9%) n (%)
- Constipation, TEAE (Total n=42): 7 (16.7%) n (%)
- Cough, any grade TEAE (Total n=42): 7 (16.7) n (%) and 7 (16.7%) n (%)
- Decreased appetite, TEAE (Total n=42): 5 (11.9%) n (%)
- Diarrhea, any grade TEAE (Total n=42): 11 (26.2) n (%) and 11 (26.2%) n (%)
- Dizziness, any grade TEAE (Total n=42): 5 (11.9) n (%) and 5 (11.9%) n (%)
- Erythema, any grade TEAE (Total n=42): 6 (14.3) n (%) and 6 (14.3%) n (%)
- Fatigue, any grade TEAE (Total n=42): 9 (21.4) n (%) and 9 (21.4%) n (%)
- Gastrointestinal disorders (SOC), TEAE (Total n=42): 24 (57.1%) n (%)
- General disorders and administration site conditions (SOC), TEAE (Total n=42): 30 (71.4%) n (%)
- Headache, any grade TEAE (Total n=42): 7 (16.7) n (%) and 7 (16.7%) n (%)
- Lymphopenia, grade ≥3 TEAE (Total n=42): 3 (7.1) n (%) and 3 (7.1%) n (%)
- Metabolism and nutrition disorders (SOC), TEAE (Total n=42): 12 (28.6%) n (%)
- Muscle spasms, any grade TEAE (Total n=42): 4 (9.5) n (%)
- Musculoskeletal and connective tissue disorders (SOC), TEAE (Total n=42): 23 (54.8%) n (%)
- Musculoskeletal and connective tissue disorders (SOC), grade 3 or higher TEAE (Total n=42): 4 (9.5%) n (%)
- Nasopharyngitis, any grade TEAE (Total n=42): 11 (26.2) n (%) and 11 (26.2%) n (%)
- Nausea, any grade TEAE (Total n=42): 13 (31.0) n (%) and 13 (31.0%) n (%)
- Nervous system disorders (SOC), TEAE (Total n=42): 13 (31.0%) n (%)
- Neutropenia, grade ≥3 TEAE (Total n=42): 3 (7.1) n (%) and 3 (7.1%) n (%)
- Oropharyngeal pain, TEAE (Total n=42): 5 (11.9%) n (%)
- Pain in extremity, any grade TEAE (Total n=42): 8 (19.0) n (%) and 8 (19.0%) n (%)
- Patients who died during the study (Total n=42): 6 patients
- Patients with a grade 3/4 TEAE (Total n=42): 18 (42.9%) n (%)
- Patients with a serious TEAE (Total n=42): 16 (38.1%) n (%)
- Peripheral edema, any grade TEAE (Total n=42): 5 (11.9) n (%) and 5 (11.9%) n (%)
- Pyrexia, any grade TEAE (Total n=42): 9 (21.4) n (%) and 9 (21.4%) n (%)
- Respiratory, thoracic and mediastinal disorders (SOC), TEAE (Total n=42): 15 (35.7%) n (%)
- Skin and subcutaneous tissue disorders (SOC), TEAE (Total n=42): 11 (26.2%) n (%)
- Vomiting, TEAE (Total n=42): 6 (14.3%) n (%)
- Patients who died due to progressive disease (all cohorts, 1 in each cohort): 3 patients
